Assay results taken from patent publication US20240166738A1 (Alector, published 2024).

How the values were obtained:
human TMEM106B = human TMEM106B (human, UniProt Q9NUM4 2-274); assay: cell-based or functional assay; note: test concentration or dose not given here
[1] = biological target: T1, GST-TMEM106B (truncated, comprising amino acids 122-210 of SEQ ID NO:1) (human, UniProt Q9NUM4 122-210); assay: pre-mix epitope binning, antibody immobilized on chip array
T1 construct: GST written first by the name only; also called truncated GST-TMEM106B fusion protein; GST-TMEM106B polypeptide fusion; not shown: GST fusion partner

B1: TM-71 (antibody, V domains shown)
VH: EVQLVESGGALVKPGGSLKLSCAASGFTFSNYAMSWVRQTPEKRLEWVATIGYGGSYSYYPDSVKGRFTISRDNAKNTLYLQMSSLRSEDTALYYCARQDSNYEGVWFAYWGQGTLVTVSS
VL: DIVMTQAAPSVPVTPGESVSISCRSSKSLLHTNGNTYLFWFIQRPGQSPHLLIYRKSNLASGVPDRFSGSGSGTAFTLRISRVEAEDVGVYYCMQHLEYPFTFGSGTKLEIK
notes: mouse hybridoma mAb
With B1 the “% Protection from CPE” value (human TMEM106B) was 3.2% and the binding result [1] was “no binding (tested: 55 nM antigen (2 ug/mL))”.
